Reference: publication PMC8177754

Substrate: Nc1nc2c(ncn2[C@@H]2O[C@@H]3COP(=O)(O)O[C@H]4[C@@H](O)[C@H](n5cnc6c(N)ncnc65)O[C@@H]4COP(=O)(O)O[C@H]3[C@H]2O)c(=O)[nH]1
Assay: purified protein
Type: biochemical, Shewanella oneidensis
Conditions: pH 8.0

B1: (Shewanella oneidensis MR-1) (protein)
chain: MNAFLPHDFKVYMDVRHALLAVATALDFVGVDDLHHGHRVAYMAYECASVLGWPDEKKQFAYFAGLIHDCGVSSSEEHLRLLKLMQPEDAHCHSKRGYEALLECPILDVFAPIVLYHHTPWLELQSHDLSVFERDIAALIFLADRTDFLRARYTHGCHEELITLHESMVAENLLAHCGTLFEPEMVNAMCQLVKKDGFWYNMDATHIELLGLEFKANHFYDKELDIGGVKQLARFLARIVDAKSPFTFHHSEKVALLAKLVAKDCGISDTDAELLYVAGLLHDVGKLKTPDLLLHKEGKLTKEEYSIVKRHTVDTEHTLHRFFPKSVIGEWASNHHERLDGSGYPFSKRQEQLDLPSRILAVVDVFQALTQKRPYRGSLSLSEIYDIMQPMVDKGQLDAGVYSILLADIDNFYHLSTQEFQT
Km: 119 ± 60 µM
